Measurements: publication PMC1885967, “The Dynamics of Signal Triggering in a gp130-Receptor Complex” (Structure(London, England:1993), 2007)

B1: Murine Interleukin 11 (residues 22-199) (ligand, UniProt P47873 22-199, looked up)
chain: PGPPAGSPRVSSDPRADLDSAVLLTRSLLADTRQLAAQMRDKFPADGDHSLDSLPTLAMSAGTLGSLQLPGVLTRLRVDLMSYLRHVQWLRRAGGPSLKTLEPELGALQARLERLLRRLQLLMSRLALPQAAPDQPVIPLGPPASAWGSIRAAHAILGGLHLTLDWAVRGLLLLKTRL
notes: Interleukin 11, murine, residues 22-199, subcloned into pET15b; Two copies stand in the hexameric IL-11H complex; also called IL-11
B2: Extracellular region of murine gp130 (residues 1-617) (receptor, UniProt Q00560 23-617, looked up)
chain: QLLEPCGYIYPEFPVVQRGSNFTAICVLKEACLQHYYVNASYIVWKTNHAAVPREQVTVINRTTSSVTFTDVVLPSVQLTCNILSFGQIEQNVYGVTMLSGFPPDKPTNLTCIVNEGKNMLCQWDPGRETYLETNYTLKSEWATEKFPDCQSKHGTSCMVSYMPTYYVNIEVWVEAENALGKVSSESINFDPVDKVKPTPPYNLSVTNSEELSSILKLSWVSSGLGGLLDLKSDIQYRTKDASTWIQVPLEDTMSPRTSFTVQDLKPFTEYVFRIRSIKDSGKGYWSDWSEEASGTTYEDRPSRPPSFWYKTNPSHGQEYRSVRLIWKALPLSEANGKILDYEVILTQSKSVSQTYTVTGTELTVNLTNDRYVASLAARNKVGKSAAAVLTIPSPHVTAAYSVVNLKAFPKDNLLWVEWTPPPKPVSKYILEWCVLSENAPCVEDWQQEDATVNRTHLRGRLLESKCYQITVTPVFATGPGGSESLKAYLKQAAPARGPTVRTKKVGKNEAVLAWDQIPVDDQNGFIRNYSISYRTSVGKEMVVHVDSSHTEYTLSSLSSDTLYMVRMAAYTDEGGKDGPEFTFTTPKFAQGEIE
notes: signal peptide in the construct; gp130, murine, extracellular region (domains D1-D6), residues 1-617, expressed as a secreted soluble protein; Two copies stand in the hexameric IL-11H complex; also called soluble gp130; source: human epithelial kidney 293T cells, transiently transfected, secreted; purified from the media (protein A Sepharose, on-column cleavage with rhinovirus 3C protease); not …

Columns and labels:
Assay in all cases: cryo-EM structure; three affinity-purified subunits mixed with IL-11 in molar excess, complex purified by gel filtration (Superdex 200); 5 mM HEPES pH 7.5, 100 mM NaCl, 1 mM DTT, 0.25% β-octylglucopyranoside; 1 mg/ml, vitrified; single-particle reconstruction with C2 symmetry at 30 Å, homology model (IL-6 hexamer plus FNIII repeats) fitted
[1] = biological target: T1, Extracellular region of murine IL-11 receptor (residues 1-361) (murine, UniProt Q64385 24-361); details: both partners purified
T1 construct: signal peptide in the construct; IL-11 receptor, murine, extracellular region, residues 1-361, expressed as a secreted soluble protein; Two copies stand in the hexameric IL-11H complex; also called soluble IL-11R; source: Drosophila S2 cells, stably transfected, secreted; purified from the media (protein A Sepharose, on-column cleavage with rhinovirus 3C protease); not shown: Fc, C-terminal, …
T1 sequence (looked up): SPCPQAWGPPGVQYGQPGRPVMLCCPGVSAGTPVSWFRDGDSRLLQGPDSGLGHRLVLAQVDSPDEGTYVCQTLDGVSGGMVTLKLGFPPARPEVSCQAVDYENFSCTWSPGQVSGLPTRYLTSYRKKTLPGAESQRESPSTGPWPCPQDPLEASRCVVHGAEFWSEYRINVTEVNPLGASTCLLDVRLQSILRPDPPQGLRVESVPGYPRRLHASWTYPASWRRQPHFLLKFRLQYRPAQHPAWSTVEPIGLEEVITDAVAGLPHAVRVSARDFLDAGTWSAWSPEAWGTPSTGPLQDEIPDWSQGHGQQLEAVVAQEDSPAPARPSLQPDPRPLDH

[2] = biological target: B2; details: both partners purified
[3] = biological target: the molecule itself

| Binder | binding result [1] | binding result [2] | binding result [3] |
| --- | --- | --- | --- |
| B1 | binds | binds | – |
| B2 | – | – | binds |
